This note sets out measurements from patent US20250186602A1, “HUMANIZED ANTIBODY THAT BONDS TO EVA1 PROTEIN OR FUNCTIONAL FRAGMENT THEREOF, ANTIBODY-DRUG CONJUGATE AND CHIMERIC ANTIGEN RECEPTOR” (CURED INC., priority 2022, published 2025).

The target in experiment [1] is T1, hEva1-mouse Fc (human, UniProt O60487 27-154, limits assumed).
T1 construct: SPR analyte; the '1' is probably the first concentration (1 nM); also called hEva1-mouse Fc1 (so in the source); not shown: mouse Fc
T1 sequence: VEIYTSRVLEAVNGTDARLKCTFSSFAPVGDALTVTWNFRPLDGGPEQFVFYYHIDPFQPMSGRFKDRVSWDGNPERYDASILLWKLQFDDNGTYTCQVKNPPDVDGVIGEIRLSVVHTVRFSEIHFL
Briefly: SPR (BiaCore T200), single-cycle kinetics; antibody captured by anti-human IgG on CM5 chip, hEva1-mouse Fc as analyte. How it is done: (§1) The dissociation constants and association constants of the humanized antibodies and the like were analyzed by using surface plasmon resonance (SPR, product name: BiaCore T200 (manufactured by GE healthcare)).
Specifically, first, human IgG capture antibodies were immobilized on a CM5 chip by an amine coupling method. […] Then, the kinetics analysis on the anti-Eval antibody and hEva1 was conducted by a single-cycle method using the following measurement conditions.

For experiment [2], the system named is hEva1-mouse Fc. Briefly: Surface plasmon resonance kinetics analysis (BiaCore T200, single-cycle). The following applies: SPR, antibody captured 5 nM, analyte hEva1-mouse Fc 1-250 nM, HBS-EP+ pH 7.4. Format: binding, human. How it is done: as §1
Specifically, first, human IgG capture antibodies were immobilized on a CM5 chip by an amine coupling method. This immobilization was conducted in both reference cells and active cells. Then, the kinetics analysis on the anti-Eval antibody and hEva1 was conducted by a single-cycle method using the following measurement conditions.
• Sample compartment temperature: 10° C. • Running buffer: HBS-EP+buffer, pH 7.4 • Capturing molecule: Human IgG antibody, reference & active cells • Ligand: Various antibodies 5 nM, active cells only • Analyte: hEva1-mouse Fc1, 5, 25, 125, 250 nM, reference & active cells • Regeneration buffer: 3M MgCl2, reference & active cells • 3 cycles of Blanks (Analyte zero concentration)
A general note: Surface plasmon resonance follows binding to a sensor surface in real time, without labels.

Residue numbers refer to the chain shown, from its start.

B1: humanized B2E5-48 antibody H2-L2 (antibody, human IgG1, V domains shown)
VH: QVQLVQSGAEVKKPGASVKVSCKASGYTFTNYWMHWVRQAPGQGLEWMGEINPTNGGTDYNEKFQGRVTMTVDKSTSTAYMELSSLRSEDTAVYYCTIYTTALDYWGQGTLVTVSS
VL: EIVLTQSPATLSLSPGERATLSCRASSSVGYMYWYQQKPGQAPRPLIYVTSNRATGIPARFSGSGSGTDYTLTISSLEPEDFAVYYCQQWSSNPPTFGQGTKLEIK
notes: Human IgG1 heavy chain and human kappa light chain vectors; made in HEK293T cells; also called B2E5-H2-L2
What is called Kd is the equilibrium constant for the complex coming apart. Low readings indicate higher affinity, high ones lower affinity. One may read the koff as the first-order rate constant of dissociation. Read a low koff as slow dissociation. As a reminder, the kon is a measure of how fast the partners come together. In the experiment with hEva1-mouse Fc [1], B1 displayed a dissociation constant (Kd) of 467 nM, an off-rate (koff) of 0.0092 s⁻¹ and a kon of 19700 M⁻¹ s⁻¹.

B2: humanized B2E5-48 antibody H2-L3 (antibody, human IgG1, V domains shown)
VH: B1 VH
VL: QIQLTQSPSFLSASVGDRVTITCRASSSVGYMYWYQQKPGKAPKPLIYVTSNLASGVPSRFSGSGSGTEYTLTISSLQPEDFATYYCQQWSSNPPTFGQGTKLEIK
notes: Human IgG1 heavy chain and human kappa light chain vectors; made in HEK293T cells
Consider B2, for which, in the experiment with hEva1-mouse Fc [1], binding was put at a Kd of 428 nM, the koff was 0.00886 s⁻¹ and the kon was 20700 M⁻¹ s⁻¹.

B3: H2-L3: humanized B2E5-48 IgG1, VH H2 (SEQ ID NO: 13), VL L3 (SEQ ID NO: 10) (antibody, V domains shown)
VH: B1 VH
VL: B2 VL
modifications: Variable Region of Heavy Chain 2 (Humanized B2E5-48); Variable Region of Light Chain 3 (Humanized B2E5-48)
In the experiment with hEva1-mouse Fc [2], B3 had a ka of 20710 M⁻¹ s⁻¹ and a kd of 0.008858 s⁻¹.

B4: H3-L2: humanized B2E5-48 IgG1, VH H3 (SEQ ID NO: 16), VL L2 (SEQ ID NO: 7) (antibody, V domains shown)
VH: QVQLVQSGSELKKPGASVKVSCKASGYTFTNYWMHWVRQAPGQGLEWIGEINPTNGGTDYNEGFTGRFVLSVDKSSSTAYLQISSLKAEDTAVYYCTIYTTALDYWGQGTLVTVSS
VL: B1 VL
modifications: Variable Region of Heavy Chain 3 (Humanized B2E5-48); Variable Region of Light Chain 2 (Humanized B2E5-48)
As for B4, in the experiment with hEva1-mouse Fc [2], the ka worked out at 16770 M⁻¹ s⁻¹ and the kd was determined as 0.0132 s⁻¹.

B5: H1-L4: humanized B2E5-48 IgG1, VH H1 (SEQ ID NO: 15), VL L4 (SEQ ID NO: 8) (antibody, V domains shown)
VH: B1 VH with M48I, M70L, T76S
VL: B2 VL with Q1D
modifications: Variable Region of Heavy Chain 1 (Humanized B2E5-48); Variable Region of Light Chain 4 (Humanized B2E5-48)
In the experiment on hEva1-mouse Fc [2], B5 displayed a ka of 17470 M⁻¹ s⁻¹ and a kd of 0.009313 s⁻¹.

B6: humanized B2E5-48 antibody H2-L4 (antibody, human IgG1, V domains shown)
VH: B1 VH
VL: B2 VL with Q1D
notes: as for B2
In the experiment with hEva1-mouse Fc [1], B6 registered a Kd of 529 nM, a koff of 0.0091 s⁻¹ and a kon of 17200 M⁻¹ s⁻¹.

B7: H2-L4: humanized B2E5-48 IgG1, VH H2 (SEQ ID NO: 13), VL L4 (SEQ ID NO: 8) (antibody, V domains shown)
VH: B1 VH
VL: B2 VL with Q1D
modifications: Variable Region of Heavy Chain 2 (Humanized B2E5-48); Variable Region of Light Chain 4 (Humanized B2E5-48)
In the experiment with hEva1-mouse Fc [2], B7 displayed a ka of 17200 M⁻¹ s⁻¹ and a kd of 0.009101 s⁻¹.

B8: humanized B2E5-48 antibody H3-L2 (antibody, human IgG1, V domains shown)
VH: B4 VH
VL: B1 VL
notes: as for B2
In the experiment with hEva1-mouse Fc [1], B8 returned a Kd of 787 nM, an off-rate (koff) of 0.0132 s⁻¹ and a kon of 16800 M⁻¹ s⁻¹.

B9: humanized B2E5-48 antibody H4-L2 (antibody, human IgG1, V domains shown)
VH: B4 VH with I48M, L70F, S76V
VL: B1 VL
notes: as for B2
In the experiment with hEva1-mouse Fc [1], B9 had a Kd of 768 nM, a koff of 0.0146 s⁻¹ and a kon of 19000 M⁻¹ s⁻¹.

B10: humanized B2E5-48 antibody H3-L4 (antibody, human IgG1, V domains shown)
VH: B4 VH
VL: B2 VL with Q1D
notes: as for B2
In the experiment with hEva1-mouse Fc [1], B10 registered an equilibrium dissociation constant (Kd) of 873 nM, an off-rate (koff) of 0.0138 s⁻¹ and a kon of 15800 M⁻¹ s⁻¹.

B11: H3-L3: humanized B2E5-48 IgG1, VH H3 (SEQ ID NO: 16), VL L3 (SEQ ID NO: 10) (antibody, V domains shown)
VH: B4 VH
VL: B2 VL
modifications: Variable Region of Heavy Chain 3 (Humanized B2E5-48); Variable Region of Light Chain 3 (Humanized B2E5-48)
In the experiment with hEva1-mouse Fc [2], B11 came in with a ka of 15010 M⁻¹ s⁻¹ and a kd of 0.01253 s⁻¹.

B12: humanized B2E5-48 antibody H3-L3 (antibody, human IgG1, V domains shown)
VH: B4 VH
VL: B2 VL
notes: as for B2
Regarding B12, in the experiment with hEva1-mouse Fc [1], the affinity, expressed as Kd, was 835 nM; the koff stood at 0.0125 s⁻¹; the kon came to 15000 M⁻¹ s⁻¹.

B13: humanized B2E5-48 antibody H1-L4 (antibody, human IgG1, V domains shown)
VH: B1 VH with M48I, M70L, T76S
VL: B2 VL with Q1D
notes: as for B2
In the case of B13, in the experiment with hEva1-mouse Fc [1], the dissociation constant (Kd) is 533 nM, the koff worked out at 0.00931 s⁻¹ and the kon was found to be 17500 M⁻¹ s⁻¹.

B14: humanized B2E5-48 antibody H4-L3 (antibody, human IgG1, V domains shown)
VH: B4 VH with I48M, L70F, S76V
VL: B2 VL
notes: as for B2
As for B14, in the experiment with hEva1-mouse Fc [1], the dissociation constant Kd came out at 877 nM, the off-rate constant (koff) was found to be 0.0136 s⁻¹ and the kon stood at 15500 M⁻¹ s⁻¹.

B15: humanized B2E5-48 antibody H4-L4 (antibody, human IgG1, V domains shown)
VH: B4 VH with I48M, L70F, S76V
VL: B2 VL with Q1D
notes: as for B2
With B15, in the experiment with hEva1-mouse Fc [1], the Kd was found to be 994 nM, the koff came to 0.0152 s⁻¹ and the kon was found to be 15300 M⁻¹ s⁻¹.
